Results as given in patent US20110172391A1 (published 2011).

Experiments:
precursor protein MINC = precursor protein MINC (Synechocystis sp. PCC6803); assay: cell-based or functional assay
N-precursor protein MINH = N-precursor protein MINH (Synechocystis sp. PCC6803); assay: cell-based or functional assay

## GVFVHN [6-aa Ic peptide]
Precursor protein MINC
  N-cleavage rate against the longer Ic peptide (with 10 mM or 100 mM DTT): ~2 fold slower

## GVFVHASG [8-aa Ic peptide]
Precursor protein MINC
  fold increase of the N-cleavage rate constant with 10 mM DTT against the Ic peptide alone: ~2 fold
  fold increase of the N-cleavage rate constant with 100 mM DTT against the Ic peptide alone: ~10 fold

## GVFVHNSADYKDDDDKSGCLAGDTLITLAS [synthetic peptide (ICF)]
N-precursor protein MINH
  rate constant (kobs) of the trans-splicing reaction, pseudo-first order, 10-fold molar excess of ICF: 6.9e-05 s⁻¹
